In the Human Domainome abundance scans (Beltran et al. 2025):
± gives the uncertainty stated by the source.

B1: POU domain, class 2, transcription factor 2, residues 200 to 269; numbered along this chain, P09086 (parent)
chain: LEELEQFARTFKQRRIKLGFTQGDVGLAMGKLYGNDFSQTTISRFEALNLSFKNMCKLKPLLEKWLNDAE

Variants of: B1
Assay: abundance fitness (aPCA) (normalised: wild type 0, dead -1); higher = more abundant; growth selection in yeast, the domain comes from the species named
Conditions: Homo sapiens
For LEELEQFARTFKQRRIKLGFTQRDVGLAMGKLYGNDFSQTTISRFEALNLSFKNMCKLKPLLEKWLNDAE [G23R], the abundance fitness was -0.004 ± 0.035.
For LEELEQFARTFKQRRIKLGFTQEDVGLAMGKLYGNDFSQTTISRFEALNLSFKNMCKLKPLLEKWLNDAE [G23E], the abundance fitness was -0.04 ± 0.05.
In the case of LEELEQFARTFKQRRIKLGFTQKDVGLAMGKLYGNDFSQTTISRFEALNLSFKNMCKLKPLLEKWLNDAE [G23K], the abundance fitness is reported as 0.029 ± 0.064.
In the case of LEELEQFARTFKQRRIKLGFTQGHVGLAMGKLYGNDFSQTTISRFEALNLSFKNMCKLKPLLEKWLNDAE [D24H], the abundance fitness is reported as -0.065 ± 0.076.
LEELEQFARTFKQRRIKLGFTQGIVGLAMGKLYGNDFSQTTISRFEALNLSFKNMCKLKPLLEKWLNDAE [D24I] showed an abundance fitness of -0.792 ± 0.28.
Work on LEELEQFARTFKQRRIKLGFTQGMVGLAMGKLYGNDFSQTTISRFEALNLSFKNMCKLKPLLEKWLNDAE [D24M] yielded an abundance fitness of -0.125 ± 0.078.
For LEELEQFARTFKQRRIKLGFTQGNVGLAMGKLYGNDFSQTTISRFEALNLSFKNMCKLKPLLEKWLNDAE [D24N], the abundance fitness was -0.091 ± 0.058.
With LEELEQFARTFKQRRIKLGFTQGEVGLAMGKLYGNDFSQTTISRFEALNLSFKNMCKLKPLLEKWLNDAE [D24E] the abundance fitness was -0.093 ± 0.065.
With LEELEQFARTFKQRRIKLGFTQGTVGLAMGKLYGNDFSQTTISRFEALNLSFKNMCKLKPLLEKWLNDAE [D24T] the abundance fitness was -0.199 ± 0.075.
Variant LEELEQFARTFKQRRIKLGFTQGYVGLAMGKLYGNDFSQTTISRFEALNLSFKNMCKLKPLLEKWLNDAE [D24Y] has an abundance fitness of -0.095 ± 0.093.
LEELEQFARTFKQRRIKLGFTQGPVGLAMGKLYGNDFSQTTISRFEALNLSFKNMCKLKPLLEKWLNDAE [D24P] showed an abundance fitness of -0.918 ± 0.099.
For LEELEQFARTFKQRRIKLGFTQGCVGLAMGKLYGNDFSQTTISRFEALNLSFKNMCKLKPLLEKWLNDAE [D24C], the abundance fitness was -0.172 ± 0.13.
With LEELEQFARTFKQRRIKLGFTQGAVGLAMGKLYGNDFSQTTISRFEALNLSFKNMCKLKPLLEKWLNDAE [D24A] the abundance fitness was -0.07 ± 0.048.
LEELEQFARTFKQRRIKLGFTQGRVGLAMGKLYGNDFSQTTISRFEALNLSFKNMCKLKPLLEKWLNDAE [D24R] gave an abundance fitness of -0.177 ± 0.033.
For LEELEQFARTFKQRRIKLGFTQGSVGLAMGKLYGNDFSQTTISRFEALNLSFKNMCKLKPLLEKWLNDAE [D24S], the abundance fitness was -0.091 ± 0.043.
With LEELEQFARTFKQRRIKLGFTQGGVGLAMGKLYGNDFSQTTISRFEALNLSFKNMCKLKPLLEKWLNDAE [D24G] the abundance fitness was -0.113 ± 0.033.
For LEELEQFARTFKQRRIKLGFTQGVVGLAMGKLYGNDFSQTTISRFEALNLSFKNMCKLKPLLEKWLNDAE [D24V], the abundance fitness was -0.169 ± 0.048.
In the case of LEELEQFARTFKQRRIKLGFTQGLVGLAMGKLYGNDFSQTTISRFEALNLSFKNMCKLKPLLEKWLNDAE [D24L], the abundance fitness is reported as -0.215 ± 0.032.
For LEELEQFARTFKQRRIKLGFTQGFVGLAMGKLYGNDFSQTTISRFEALNLSFKNMCKLKPLLEKWLNDAE [D24F], the abundance fitness was -0.158 ± 0.11.
For LEELEQFARTFKQRRIKLGFTQGWVGLAMGKLYGNDFSQTTISRFEALNLSFKNMCKLKPLLEKWLNDAE [D24W], the abundance fitness was -0.285 ± 0.045.
Work on LEELEQFARTFKQRRIKLGFTQGKVGLAMGKLYGNDFSQTTISRFEALNLSFKNMCKLKPLLEKWLNDAE [D24K] yielded an abundance fitness of -0.202 ± 0.067.
LEELEQFARTFKQRRIKLGFTQGQVGLAMGKLYGNDFSQTTISRFEALNLSFKNMCKLKPLLEKWLNDAE [D24Q] gave an abundance fitness of 0.003 ± 0.053.
With LEELEQFARTFKQRRIKLGFTPGDVGLAMGKLYGNDFSQTTISRFEALNLSFKNMCKLKPLLEKWLNDAE [Q22P] the abundance fitness was -0.071 ± 0.051.
In the case of LEELEQFARTFKQRRIKLGFTTGDVGLAMGKLYGNDFSQTTISRFEALNLSFKNMCKLKPLLEKWLNDAE [Q22T], the abundance fitness is reported as -0.045 ± 0.049.
Variant LEELEQFARTFKQRRIKLGFTIGDVGLAMGKLYGNDFSQTTISRFEALNLSFKNMCKLKPLLEKWLNDAE [Q22I] has an abundance fitness of -0.12 ± 0.16.
Work on LEELEQFARTFKQRRIKLGFTRGDVGLAMGKLYGNDFSQTTISRFEALNLSFKNMCKLKPLLEKWLNDAE [Q22R] yielded an abundance fitness of -0.11 ± 0.037.
LEELEQFARTFKQRRIKLGFTYGDVGLAMGKLYGNDFSQTTISRFEALNLSFKNMCKLKPLLEKWLNDAE [Q22Y] showed an abundance fitness of -0.423 ± 0.1.
Work on LEELEQFARTFKQRRIKLGFTSGDVGLAMGKLYGNDFSQTTISRFEALNLSFKNMCKLKPLLEKWLNDAE [Q22S] yielded an abundance fitness of -0.093 ± 0.047.
Variant LEELEQFARTFKQRRIKLGFTWGDVGLAMGKLYGNDFSQTTISRFEALNLSFKNMCKLKPLLEKWLNDAE [Q22W] has an abundance fitness of -0.006 ± 0.047.
For LEELEQFARTFKQRRIKLGFTNGDVGLAMGKLYGNDFSQTTISRFEALNLSFKNMCKLKPLLEKWLNDAE [Q22N], the abundance fitness was -0.351 ± 0.18.
For LEELEQFARTFKQRRIKLGFTHGDVGLAMGKLYGNDFSQTTISRFEALNLSFKNMCKLKPLLEKWLNDAE [Q22H], the abundance fitness was -0.062 ± 0.11.
Variant LEELEQFARTFKQRRIKLGFTLGDVGLAMGKLYGNDFSQTTISRFEALNLSFKNMCKLKPLLEKWLNDAE [Q22L] has an abundance fitness of -0.025 ± 0.042.
LEELEQFARTFKQRRIKLGFTCGDVGLAMGKLYGNDFSQTTISRFEALNLSFKNMCKLKPLLEKWLNDAE [Q22C] gave an abundance fitness of -0.004 ± 0.07.
With LEELEQFARTFKQRRIKLGFTGGDVGLAMGKLYGNDFSQTTISRFEALNLSFKNMCKLKPLLEKWLNDAE [Q22G] the abundance fitness was -0.187 ± 0.034.
LEELEQFARTFKQRRIKLGFTMGDVGLAMGKLYGNDFSQTTISRFEALNLSFKNMCKLKPLLEKWLNDAE [Q22M] gave an abundance fitness of -0.054 ± 0.05.
LEELEQFARTFKQRRIKLGFTAGDVGLAMGKLYGNDFSQTTISRFEALNLSFKNMCKLKPLLEKWLNDAE [Q22A] showed an abundance fitness of 0.004 ± 0.05.
LEELEQFARTFKQRRIKLGFTKGDVGLAMGKLYGNDFSQTTISRFEALNLSFKNMCKLKPLLEKWLNDAE [Q22K] gave an abundance fitness of -0.042 ± 0.07.
Work on LEELEQFARTFKQRRIKLGFTFGDVGLAMGKLYGNDFSQTTISRFEALNLSFKNMCKLKPLLEKWLNDAE [Q22F] yielded an abundance fitness of -0.097 ± 0.1.
LEELEQFARTFKQRRIKLGFTVGDVGLAMGKLYGNDFSQTTISRFEALNLSFKNMCKLKPLLEKWLNDAE [Q22V] gave an abundance fitness of -0.059 ± 0.038.
